Assay results taken from article PMC3295762, “Gene Expression of the Tumour Suppressor LKB1 Is Mediated by Sp1, NF-Y and FOXO Transcription Factors”.

B1: LKB1 FOXO site oligo WT (dsDNA)
DNA 1: GGGGAGGGAGGTAAACAAGATGGCGGC
DNA 2: GCCGCCATCTTGTTTACCTCCCTCCCC
B2: LKB1 FOXO site oligo mutant (dsDNA)
DNA 1: GGGGAGGGAGGTAGCCAAGATGGCGGC
DNA 2: GCCGCCATCTTGGCTACCTCCCTCCCC

How the values were obtained:
GST-FOXO3 [1] = molecular target: T1, GST-FOXO3 (UniProt O43524 1-673); assay: EMSA; EMSA: 10% glycerol, 12 mM HEPES pH 7.9, 4 mM Tris-HCl pH 7.9, 60 mM KCl, 1 mM DTT, 0.6 mg/ml BSA, 0.5 ug poly(dI-dC), 20 ul, 30 min at 25 C; supershift 1 h at 4 C; details: protein: commercial; tags: GST; label: 32P; blunt
GST-FOXO3 [2] = molecular target: T1, GST-FOXO3; assay: competition; unlabeled excess vs N1 probe; EMSA: 10% glycerol, 12 mM HEPES pH 7.9, 4 mM Tris-HCl pH 7.9, 60 mM KCl, 1 mM DTT, 0.6 mg/ml BSA, 0.5 ug poly(dI-dC), 20 ul, 30 min at 25 C; supershift 1 h at 4 C; details: protein: commercial; tags: GST; blunt

T1 sequence (O43524 whole entry): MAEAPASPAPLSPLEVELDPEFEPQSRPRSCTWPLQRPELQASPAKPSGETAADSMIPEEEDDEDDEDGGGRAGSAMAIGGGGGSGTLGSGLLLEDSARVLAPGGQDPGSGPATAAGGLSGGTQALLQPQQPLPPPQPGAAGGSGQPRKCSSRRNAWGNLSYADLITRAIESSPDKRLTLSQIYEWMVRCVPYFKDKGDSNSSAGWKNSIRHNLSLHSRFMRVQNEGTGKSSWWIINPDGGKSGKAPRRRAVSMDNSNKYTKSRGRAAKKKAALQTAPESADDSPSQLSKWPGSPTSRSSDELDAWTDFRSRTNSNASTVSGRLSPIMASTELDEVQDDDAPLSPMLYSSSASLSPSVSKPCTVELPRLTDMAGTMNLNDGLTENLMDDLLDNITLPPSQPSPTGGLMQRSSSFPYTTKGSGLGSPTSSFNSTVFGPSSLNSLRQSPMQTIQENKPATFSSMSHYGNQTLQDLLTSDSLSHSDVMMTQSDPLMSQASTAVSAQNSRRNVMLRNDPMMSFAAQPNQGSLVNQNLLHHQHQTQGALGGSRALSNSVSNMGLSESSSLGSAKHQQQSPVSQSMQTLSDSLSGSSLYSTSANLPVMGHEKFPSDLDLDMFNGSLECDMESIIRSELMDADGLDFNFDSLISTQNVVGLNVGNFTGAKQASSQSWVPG

Binder	binding result (GST-FOXO3 [1])	binding result (GST-FOXO3 [2])
B1	binds	
B2		no binding
